In the nanobody polyreactivity screen of Harvey et al. (2022):

test: yeast display, Sf9 membrane polyspecificity reagent, FACS + sequencing; frameworks hold sequencing errors
Procedure, shortened: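 Galactose-induced (36–48 hours) yeast carrying a synthetic nanobody display library were exposed to 10% biotinylated, detergent-solubilized Sf9 membrane reagent at 4 °C for 1 hour. FACS followed streptavidin microbead enrichment, using low and high (top ~1%) gates for expression (anti-HA) and reagent binding (streptavidin). Colony PCR, MiSeq 2 × 250 sequencing and CDR-length filtering followed. Labels for polyreactivity reflect the gate of origin.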

Row | Sequence | polyreactivity (PSR sort gate)
1 | QVQLVESGGGLVQAGGSLRLSCAASGSIIVNYDMGWYRQAPGKERELVAAISSGGSTKYADSVKGRFTISRDNAKNTVYLQMNSLKPEDTAVYYCAAGKHVTFSYEYRMDYWGQGTQVTVSS | low polyreactivity
2 | QDQLVDSGGGLVQAGGSLRLSCAPSGSTIYPNAKGWTRQAPGKERELVAGISSGGGTYYADSVKGRFTISRDNAKNTVYLQMNSLKPEDTAVYYCNAYFLSSCLDYLGQGTQVTVSS | low polyreactivity
3 | QVQLVESGGGLVQAGGSLRVSCAASGRTSSINAMGWYREAPGKERELVAVITGRGGSTYYADSVKGRCTISRDNAKNTVYLQINSLKPEDTAVYYCAARRVPSVSGTYDYWGQGTQVTVSS | high polyreactivity
4 | QVQLVESGGGLVQAGGSLRLSCAASGLTFARTAKGWYRQAPGKERALVAAISSRGGSTYYADSVKGRFTISRDIANNTVYLQMNSLKPEDTAVYYCATSQVLRRDRYDYWGQGTQVTVSS | high polyreactivity
5 | QVQLVESGGGLVQAGGSLRLSCAASGITFSKYAMGWYRQAPGKERELVAAITRSGGSTYYADSVKGRFTISRDNAKNTVYLQMNSLKPEDTAVYYCNARGYVTGGDGGYGYWGQGTQVTVSS | high polyreactivity
6 | QVQLVESGGGLVQAGGSLRLSCAASGYTFYAYAMGWYRQAPGKERELVAAISGSGGNTRYADSVKGRFTISRDNAKNTVYLQMNSLKPEDTAVYYCAAVGWAYNSRYDYWGQGTQVTVSS | high polyreactivity
7 | QVQLVESGGGLVQAGGSLRLSCAASGRIFVYYAMGWYRQAPGKERELVAAITSGGGSTYYADSVKGRFTISRDNAKNTVYLQMNSLKPEDTAVYYCNKGYYYPYDYWGQGTQVTVSS | high polyreactivity
8 | QVQLVESGGGLVQAGGSLRLSCAASGSTFDRYTMGWYRQAPGKERELVAAISISGGSTYYADSVKGRFTISRDNAKNTVYLQMNSLKPEDTEVYYCAARLDTVTDYYYWGQGTQVTVSS | low polyreactivity
9 | QVQLVETGGCLVQAGGSLPLSCAASGRTFRPYAKGLYRPAPGKERELVAAITRGGSTKYADSVKGRFTISRDNAKNTVYLQMNSLKPEDTAVYYCAPDYSVYHRLFDYWGQGTQVTVSS | high polyreactivity
10 | QVQLVESGGGLVQAGGSLRLSCAASGRIFYYAMGWYRQAPGKEREFVAAISGSGGSTNYADSVKGRFTISRDNAKNTVYLQMNSLKPEDTAVYYCNAESWSWGFIYEYEYWGQGTQVTVSW | high polyreactivity
11 | QVQLVESGGGLVQAGGTLRLSCAATGFTFYEYAMGWYRQAPGKERELVAGIRRSGDSTYYADSVKGRFTISRDNAKNTVYLQMNILKPEDTAVYYCAKGWYRIKRNDYWGQGTQVTVSS | low polyreactivity
12 | QVQLVESGGGLVQAGGSLRLSCAASGRTFFDYSMGWYRQAPGKERELVAAITGGDGSTYYADSVKGRFTISRDNAKNTVYIQMNSLKTEDTAVYYCAAENTRTYWYAAMDYWGQGTQVTVSS | low polyreactivity
13 | QVQLVESGGGLVQAGGSLRLSCAASGSIFPLYAMGWYRQAPGKERELVADITVSGGSTYNADSVKGRFTISRDNAKNTVYLQMNSLKPEDTAVYYCNADDRSPFPDYWWYPYDYDYWGQGTQVTVSS | low polyreactivity
14 | QVQLVESGGGLFQAGGSLRLSCAASGSTLGSNAMGWYRQAPGKERELVAAITWSGGTTYYADSLKGRFTISRDNAKNTVYLQMNSLKPEDTAVYYCAPGQSVIYRYEFWGQGTQVTVSS | low polyreactivity
15 | QVQLVESGGGLVQAGGSLRLSCAASGSTFVGYAMGWYRQAPGKERELVAAISKSGGRTYYADSVKGRFTISRDNAKNTVYLQMNSLKPEDTAVYYCAAYFTRYDFRWHTYYYWGQGTQVTVSS | low polyreactivity
16 | QLQLVESGGVLDQAGRSLRLICAASVIIFRGYAKGRSRQAHGKERELVAAISRSGGRTYYADSVKGRFTISRDNAKKTVYLQRNSLKTEDTAVYYCAPQWLYLEYDYWGQGTQVTVSS | high polyreactivity
17 | QVQLVESGGGLVQAGGSLRLSCAASGSTFKRYAMGWYRQAPGKERELVASISSGGSTNYADSVKGRFTISRDNAKNTVYLQMNSLKPEDTAVYYCATYLVTGGGLNVRYDYWGQGTQVTVSS | high polyreactivity
18 | QVQLVESGGGLVQAGGSLRLRCAASGRTFFVYTMGWYRQAPGKERELVAAITSDTSTTYADSVKGRFTISRDNAKNTVYLQMISLKPEDTAVYYCAAEGYVGYYDYDYWGQGTQVTVSS | low polyreactivity
19 | QVQLVESGGGVVQAGGSLRLSCAASGSTFYYNAMGWNRQAPGKERELVARISRSGGSTYADSVKGRFTISRDNAKNTVYLQMNSLKPEDTAVYYCNADAYGTPEFTSYAVRYDYWGQGTQVTVSS | low polyreactivity
20 | QDQHVESGGGLVQAGGSLRLSCAASGTTFSLYMGWNRQSPGKERKLVAAITYSGGRTYYADSVKGRFTISRDNAKNTVYLQMNSLKPEDTAVYYCGTVFNDLTVYEYWSRFDYWGQGTQVTVSS | low polyreactivity
21 | QVQLVESGGGLVQAGGSLRLSCAASGRTFPIYAMGWYRQARGKERELVAAITYSGGSTYYADSVKGRFTISRDNAKNTDYLQMNSQKPEDTAVYYCAVDGTKPYWHQRYDYWGQGTQVTGSS | low polyreactivity

Row | Sequence | polyreactivity (PSR sort gate)
22 | QVQLVESGGGLVQAGGSLRLSCAASGSTFASYAMGWYRQAPGKERELVAAITNGGSTNYADSVKGRFTISRDNAKNTVYLQMNSLKPEDTAVYYCAAYDGFPRRYDYWGQGTQVTVSS | low polyreactivity
23 | QVQLVESGGGLVQAGGSLSLTCAASGRIFSYYAMGWYRQAPGKERELVAGISRGTSTYYADSVKGRFTISRDNAKNTVYLQMNSLKPEDTAVYYCAADYFSYYSPYRYGYWGQGTQVTVSS | high polyreactivity
24 | QVQLVESGGGLVQAGGSLRLSCAASGRTFVRYAMGWYRQAPGKERELVAAISWSGGSTYYADSVKGRFTISRDNAKNTVYLQMNSLKPEDTAVYYCAADDETPSSHEEDYWGQGTQVTVSS | high polyreactivity
25 | QVHLVESGGGLVQAGGSLRLSCAASGSIFVYNSMGWYRQAPGKEMELVAGITFIGGSTYYADSVKGRFTISRDNAKNTVYLQKNSLKPEDTAVYYCNADVAPGIFYGYDSWGQGTQVTVSS | low polyreactivity
26 | QVQLVESGGGLVQAGGSLRLSCAASGSTFVSYDMGWYRQAPGKERELVAAIDWSGGNTDYADSVKGRFTISRDNAKNTVYLQMNSLKPEDNAVYYCAVEKFFRAEYDHWGQGTQVTVSS | low polyreactivity
27 | QVQLVESGGGLVQAGGSLRLSCSASGRIFKRYAMGWYRQSPGKERELVAAFTRGGSTNYADSVKGRFTISRDNAKNTVYLQMNSLKPEDTAVYYCNRYGGTRYWGRGTQVTVSS | high polyreactivity
28 | QVQLVESGGGLVQAAGSLRLTCAASGRTFYDNVKGWYRQAPGKERELVAAISSGGSTNYADSVKGRFTISRDNAKNTVYLQMNSLKPEDTAVYYCATTGGGGWAYEYWGQGTQVTVSS | low polyreactivity
29 | QVQLQESGGGLVQAGGSQRLSCAASGTITVLYKMGRFRQAPGKEREFVASINYGTSTYYADSVKGRFTLSRDSAKNTVYLQMNSLKPEDTAVYYCAAAYRWQDVYRYWGQGTQVTVSS | low polyreactivity
30 | QVHLVESGGGLVQAGGSLRLSCAASGLTFPSNAMGWYRQAPGKERELVAAISKRGGRTYYADSVKGRFTISRDNAKNSVYLQMNSLKPEDTAVYYFATPYAYPGTVQYAGYNYWGQGTQVTVSS | high polyreactivity
31 | QVQLVESGGGLVKAGGSLRLSCAASGRIFNYYAMGWYRQAPGKERELVAAISSVGSTNYADSVTGRFTISRDNAKNTVYLQMISLKPEDTAVYYCAAPYQHYDVNYDSWGQGTQVTVSS | low polyreactivity
32 | QVQLVETGGGLVQAGGSLSLSCAASGYIFEINAKGWYRQAPGKERELVADIRRGDSTNYADSVKGRFTISRDNSMNTVYLQMNSLKPEDTAVYYCAAYHRLFDYDYCGQGTQVTVSS | high polyreactivity
33 | QVQLVESGGGLVQAGGSLRLSCAASGLNFWYYAMGWYRQAPGKERELVAAISWGGGSTYYADSVKGRFTISRDNAKNTVYLLMNSLKPEDTAVYYCAADSSYWYGTECDYWGQGTQVTVSS | high polyreactivity
34 | QVQLVESGGGLVQAGGILRLSCAAYGFTFYSYSMGWYRQAPGKEREFVAAGSTYYADSVKGRFTISRDNAKNTVYLQMNSLKPEDTAVYYCAADPWIYVQSYGFWGQGTQVTVSS | low polyreactivity
35 | QVQLVESGGGLFQAGGSLRLSCDASGRNFSGNAMGMYRQAPGKERELVAAITWSGSSTFYADSVKGLFTISRDYAKNTVYFQMNSLKPEDTAVYYCAVDSSSPVRPHSDEDYWGQGTQVTVSS | low polyreactivity
36 | QVQLVESGGGLVQAGGSLRLSCAASGITFPLYAMGWYRKAPGKERELVATISGRGGSTYYADYVKGRFTISRDNAKNTVYLQMNSLIPEDTAVYYCNADFRSPYFLLSWYHSGDYWGLGTQVTVSS | low polyreactivity
37 | QVQLLESGGGLVQAGGSLRLSCAASGFTLAFNAMGWYRQAPGKERELVASITSSSGSTYYADSVKGRFTISRDNAKNTVYLQLNSLKPEDTAVYYCARDLAIPQVLSQPIFGYWGQGTQVTVSS | low polyreactivity
38 | QVQLVESGGGLVQAGGSLRLSCAASGFIFYYYAMGWYRPAPGKERELVAAISGESTSTYYADSVKGRFTISRDNAKNTVYLQMNSLKPEDTALYYCAADLYHWDGYEYWGQGTQVTVST | high polyreactivity
39 | QVQLVESGGGLVQAGGSLRLSCPASGFIFQHYAMGWYRQAPGKERELVAAIDFTDGSTYYADSVKGRFTISRDNAKNTVYLQMNSLKPEDTAVYYCNALDYLYGGIYLDEDYWGQGTQVTVSS | low polyreactivity
40 | QVQLVESGGGLVQAGGSLRLSCAASGSIFVLNAMGWYRPAPGKDRELVAAITNVGSTYYADSVKGRFTISRDNAKNTVYLQMNSRKPEDTAVYYCNADPAEVLVGYDYWGQGTQVTVSS | low polyreactivity
41 | QVQLVESGGGLVQAGGSLRLSCAASGSTFGPYAMGWYRPAPGKEMELVATITRNGGSTYYADSVKGRFTISRDNAKNTVYLQMNSLKPEDTAVYYCNAEGRWSSFTQRMDYWGQGTQVTVSS | low polyreactivity
